Reference: US20210130420A1, “RECOMBINANT BINDING PROTEINS TARGETING HER2 AND SERUM ALBUMIN, AND THEIR USES” (Molecular Partners AG, priority 2016, published 2021)

Legend:
HER2 [1] = molecular target: T1, HER2 (Homo sapiens, UniProt P04626); experiment: Phosphorylation state ELISA, BT474 cells; format: cell-based; set-up: BT474 cells were treated for 18 hours with either Protein #21 (100 nM); host or cells: BT474; conditions: 100 nM, 18 hours
HER3 = experiment: Phosphorylation state ELISA, BT474 cells; format: cell-based, human; conditions: 100 nM, 18 hours
HER1/EGFR = experiment: Phosphorylation state ELISA, BT474 cells; format: cell-based, human; conditions: 100 nM, 18 hours
[2] = Storage stability in PBS analysed by SDS-PAGE; format: physicochemical; conditions: SDS-PAGE after 1 month at 40° C. in glass vials in PBS at 10 mg/ml
Method: “Improved storage stability” in the context of the present invention means the reduction of the amounts of a degradation band, preferably the reduction of the amount of degradation products, as detected by a Coomassie-stained SDS-PAGE occurring after storage at 40° C. for 1 month at 10 mg/ml in PBS, by at least 5%, 10%, 15%, 20%, 25%, 30%, 35%, 40%, 45%, 50%, or 50%. Methods to assess storage stability by SDS-PAGE are well known to the person skilled in the art. Examples of designed ankyrin repeat domains and recombinant binding proteins with improved storage stability properties are given in Examples 2 and 3.
Protein #13-His, Protein #14-His and Protein #15-His were prepared as described in Example 1, and samples were concentrated to 10 mg/ml in PBS. Protein #14-His and Protein #15-His where then stored for 1 month at −80° C. or at 40° C. in glass vials, followed by analysis on SDS 15% PAGE. […] These findings illustrate that Protein #14-His has improved storage stability compared to Proteins #13-His and Protein #15-His.
(§1) A storage stability improvement is also observed, when testing the storage stability of Protein #21 and Protein #22 (recombinant binding proteins consisting of the amino acid sequences corresponding to SEQ ID NOs: 21 and 22, respectively). Protein #21 and Protein #22 are prepared as described in Example 1, samples are concentrated to 10 mg/ml in PBS and stored for 1 month at −80° C. in or at 40° C. in glass vials, followed by analysis on standard size-exclusion chromatography.

Foxo3a protein = experiment: Cellular levels of Foxo3a protein in BT474 cells; format: cell-based, human; conditions: compared to an exposure to PBS only
Excerpt: (§2) Protein #21 was expressed and purified as described in Example 1. […] Cells were then subjected to a phospho-proteome mass-spectrometry analysis as described by Britton, D., et al. (Britton, D., Zen, Y., Quaglia, A., Selzer, S., Mitra, VI., Lössner, C., Jung, S., Bohm, G., Schmid, P., Prefot, P., Hoehle, C., Koncarevic, S., Gee, J., Nicholson, R., Ward, M., Castellano, L., Stebbing, J., Zucht, H. D., Sarker, D., Heaton, N., and Pike, I., 2014. PLOS One 9 (3), e90948).
It is known to the practitioner in the art, that Akt1 phosphorylates Foxo3a, resulting in the degradation of Foxo3a and promotion of cell survival. Inhibition of Act phosphorylation leads to stabilization of Foxo3a and thus increase in Foxo3a levels. At increased levels Foxo3a can translocate to the nucleus and induce apoptosis.

[3] = Storage stability in PBS analysed by size-exclusion chromatography; format: physicochemical; conditions: 10 mg/ml in PBS
Method: as §1

HER2 [4] = molecular target: T1, HER2; experiment: Phospho-proteome mass spectrometry of BT474 cells; format: cell-based; set-up: host or cells: BT474; conditions: 100 nM, 18 hours
Excerpt: as §2

GXA3039 = experiment: Gastric cancer patient derived tumor xenograft mouse model GXA3039; format: in vivo; conditions: Protein #21 60 mg/kg, antibodies 10 mg/kg, every three days for 6 times
Method: Further, Protein #21 was expressed and purified as described in Example 1. […] All groups were dosed every three days for 6 times. Briefly, tumor fragments were obtained from xenografts in serial passage in nude mice. After removal from donor mice, tumors were cut into fragments (4-5 mm diameter) for subcutaneous implantation. Mice were randomized into groups when tumors reached a volume of approximately 100-120 mm^3. The day of randomization and treatment initiation is designated as day 0 in each experiment. Tumor growth was monitored by two-dimensional measurement with a caliper on the day of randomization and then twice weekly. Relative volumes of individual tumors (individual RTVs) for Day x were calculated by dividing the individual tumor volume on Day x (Tx) by the individual volume of the same tumor on Day 0 (TO) multiplied by 100%. Tumor inhibition for a particular day (T/C in %) was calculated from the ratio of the median RTV values of test versus control groups multiplied by 100%.

[5] = Pharmacokinetic comparison of Protein #21 with Protein #33; format: in vivo; conditions: variant lacking the C-terminal serum albumin binding domain
Excerpt: Many options are known in the art for pharmacokinetic engineering including PEGylation, polypeptide extension, Fc-fusion, serum albumin-fusion, and binding to serum albumin, amongst others (Kontermann, R (Ed.) “Therapeutic proteins: strategies to modulate their plasma half-lives”, Wiley-VCH Verlag GmbH, 2012, ISBN 978-3-527-32849-9). Starting from e.g. the combination of designed ankyrin repeat domains with binding specificity for HER2 comprising SEQ ID NOs: 16 and 17, there are hundreds of potential drug candidate variants (choice of pharmacokinetic modification engineering, choice of polypeptide linker (e.g. SEQ ID NOs: 2 to 9 amongst many others), amongst other aspects). […] Results of the effect of the choice of the polypeptide linker are shown e.g. in Example 10.
For the studies in this example Protein #21-His, Protein #24-His, Protein #28-His, Protein #29-His, and Protein #30-His were prepared according to Example 1. Protein #28-His was additionally PEGylated using a 40 kDa PEG moiety (NOF Sunbright GL2-400MA) by maleimid coupling of the PEG-moiety onto the free C-terminal cysteine of Protein #28-His, followed by purification to homogeneity using standard purification methods, procedures well known to the person skilled in the art. Pharmacokinetic analyses in mouse or cynomolgus monkey were performed as described in Examples 8 and 9.

[6] = test system: SKBR-3, SKOV-3, NCI-N87, ZR-75-30, HCC1419, or MDA-MB175; experiment: Proliferation inhibition on a variety of cancer cell-lines; format: cell-based

- HER2 Pan-Phospho-Tyrosine (HER2 [1]): 0.04 fold change to PBS
- HER2 S1073/S1078/S1083 phosphorylation (HER2 [4]): 0.35 fold change to PBS
- HER2 S1174 phosphorylation (HER2 [4]): 0.59 fold change to PBS
- HER2 T772 phosphorylation (HER2 [4]): 10.27 fold change to PBS
- HER2 T1172/S1174 phosphorylation (HER2 [4]): 0.44 fold change to PBS
- HER2 T1240 phosphorylation (HER2 [4]): 0.09 fold change to PBS
- HER2 Y1139/S1151 phosphorylation (HER2 [4]): 0.88 fold change to PBS
B1: Protein #21: SEQ ID NO: 21; HER2 binding domains (SEQ ID NOs: 16, 17) flanked by two serum albumin binding domains (SEQ ID NO: 14), SEQ ID NO: 9 linkers (protein)
chain: GSDLGKKLLEAARAGQDDEVRELLKAGADVNAKDYFSHTPLHLAARNGHLKIVEVLLKAGADVNAKDFAGKTPLHLAANEGHLEIVEVLLKAGADVNAQDIFGKTPADIAADAGHEDIAEVLQKAAGSPTPTPTTPTPTPTTPTPTPTGSDLGIKLLFAAAKGQDDEVRELLKAGADVNAKDFQGVTPLHIAAQSGHLEIVEVLLKAGADVNAKDVTGDTPLHLAAQHGHLEIVEVLLKAGADVNAQDERGWTPADLAADWGHEDIAEVLQKAAGSPTPTPTTPTPTPTTPTPTPTGSDLGKKLLEAARAGQDDEVRELLKAGADVNAKDEYGLTPLYLATAHGHLEIVEVLLKAGADVNAVDAIGFTPLHLAAFIGHLEIAEVLLKAGADVNAQDKFGKTPADIAAGAGNEDIAEVLQKAAGSPTPTPTTPTPTPTTPTPTPTGSDLGKKLLEAARAGQDDEVRELLKAGADVNAKDYFSHTPLHLAARNGHLKIVEVLLKAGADVNAKDFAGKTPLHLAANEGHLEIVEVLLKAGADVNAQDIFGKTPADIAADAGHEDIAEVLQKAA
modifications: Protein comprising four designed ankyrin repeat domains
- HER3 Pan-Phospho-Tyrosine (HER3): 0.45 fold change to PBS
- HER1/EGFR Pan-Phospho-Tyrosine (HER1/EGFR): 0.40 fold change to PBS
- amounts of degradation products compared to Protein #22 [2]: lower amounts of degradation products
- increase of cellular levels of Foxo3a protein (Foxo3a protein): 1.88 fold
- monomeric species compared to Protein #22 ([3]; 1 month at 40° C.): significantly more monomeric species
- elution profiles upon storage at −80° C. ([3]; 1 month at −80° C.): equivalent elution profiles
- inhibition of tumor growth, first experiment (GXA3039; GXA3039, FIG. 4C): strong inhibition of tumor growth
- inhibition of tumor growth, second experiment (GXA3039; GXA3039, FIG. 4D): strong inhibition of tumor growth
- pharmacokinetic properties compared to Protein #33 [5]: markedly improved pharmacokinetic properties, in particular a longer terminal half-life
- proliferation inhibition on cancer cell-lines [6]: strong proliferation inhibition
